T1: human UHRF1 PHD finger, residues 299–366 (human, UniProt Q96T88 299-366)
T1 chain: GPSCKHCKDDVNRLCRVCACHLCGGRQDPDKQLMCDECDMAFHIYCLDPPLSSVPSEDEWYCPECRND


Molecular target: T1, human UHRF1 PHD finger, residues 299–366
Experiment: ITC

Kd | Binder
1280 nM | SRRGVRTALSVQREKMARLRYMLLGGVRTHERRPTNKE (domain or fragment) [hDPPA3_(81-118) L88A]
1610 nM | SRRGARTLLSVQREKMARLRYMLLGGVRTHERRPTNKE (domain or fragment) [hDPPA3_(81-118) V85A]

— paper PMC11187062 (2024)
